Source: patent publication US20220281998A1 (AZUSAPHARMA SCIENCES, published 2022)
Changes are numbered by the printed parent chain.

Assays:
[1] = target: human EGFR on human cancer cell lines (HCT116, A-431, NCI-H1975, HT-29, RKO) (human, UniProt P00533 25-1210); experiment: cell-based or functional assay
[2] = target: human PSMA on 22Rv1 cells (PSMA-positive human prostate cancer cell line) (human, UniProt Q04609 1-750); experiment: cell-based or functional assay
[3] = target: T1, human EpCAM on HCT116 cells (EpCAM-positive human colon cancer cell line) (human, UniProt P16422 24-314); experiment: cell-based or functional assay
T1 sequence (looked up): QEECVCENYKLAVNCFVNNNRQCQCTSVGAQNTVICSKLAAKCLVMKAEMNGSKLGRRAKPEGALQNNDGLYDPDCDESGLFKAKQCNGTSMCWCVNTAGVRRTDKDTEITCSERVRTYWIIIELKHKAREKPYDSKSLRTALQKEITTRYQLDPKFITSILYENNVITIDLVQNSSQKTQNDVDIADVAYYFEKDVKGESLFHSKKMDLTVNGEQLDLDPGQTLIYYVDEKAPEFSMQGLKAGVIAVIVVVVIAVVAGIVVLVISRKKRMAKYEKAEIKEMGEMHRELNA

[4] = target: T2, human CD3E/CD3D heterodimer recombinant protein (manufactured by ACROBiosystems) (human, UniProt P07766 23-126; P04234 22-105); experiment: sandwich ELISA: immobilised human CD3E/CD3D heterodimer, BsAb, biotinylated EpCAM
T2 construct: Bought reagent, immobilised on ELISA plates
Protocol: 25 μL of a solution containing 2.5 μg/mL human CD3E/CD3D heterodimer recombinant protein (available from ACROBiosystems) was dispensed into each well of a 96-well plate, followed by standing overnight at 4° C. for immobilization. The solution after immobilization was removed, and each well was washed with 200 μL of PBS-T 3 times. Thereafter, 200 μL of a blocking solution (Blocking One, manufactured by NACALAI TESQUE, INC.) diluted 5-fold with distilled water was dispensed, followed by standing at 25° C. for 2 hours for blocking treatment. The blocking solution in each well was removed, and the well was washed with 200 μL of PBS-T 3 times. 100 (ng/mL) or 1000 (ng/mL) EpCAM×CD3 diabody-type BsAb and 100 (ng/mL) or 1000 (ng/mL) EGFR×CD3 diabody-type BsAb as a negative control were each diluted 50-fold with a signal enhancer HIKARI A solution (manufactured by NACALAI TESQUE, INC.) containing 1% BSA, and 25 μL of each solution was dispensed into each well after blocking, followed by standing at 25° C. for 2 hours for reaction treatment between the antibody (EpCAM×CD3 diabody-type BsAb) and the antigen (immobilized human CD3E/CD3D heterodimer recombinant protein). Thereafter, the solution in each well was removed, and the well was washed with 200 μL of PBS-T 3 times.

[5] = target: T2, human CD3E/CD3D heterodimer recombinant …; experiment: sandwich ELISA: immobilised human CD3E/CD3D heterodimer, BsAb, biotinylated HER2
[6] = target: recombinant biotinylated human EGFR (manufactured by ACROBiosystems) (human, UniProt P00533 25-645, biotinylated (site not stated)); experiment: sandwich ELISA: immobilised human CD3E/CD3D heterodimer, BsAb, detection with biotinylated human EGFR
[7] = target: T2, human CD3E/CD3D heterodimer recombinant …; experiment: sandwich ELISA: immobilised human CD3E/CD3D heterodimer, BsAb, biotinylated human EGFR

T2 sequence (P07766 23-126 limits assumed, chain 1 of 2): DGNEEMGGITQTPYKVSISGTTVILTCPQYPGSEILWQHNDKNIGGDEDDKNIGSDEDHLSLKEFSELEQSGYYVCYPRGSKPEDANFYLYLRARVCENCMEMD
T2 sequence (P04234 22-105 limits assumed, chain 2 of 2): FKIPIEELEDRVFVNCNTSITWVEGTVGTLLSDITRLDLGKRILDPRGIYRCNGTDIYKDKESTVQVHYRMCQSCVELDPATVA
Chain of human PSMA on 22Rv1 cells (PSMA-positive human prostate cancer cell line) (Q04609 whole entry): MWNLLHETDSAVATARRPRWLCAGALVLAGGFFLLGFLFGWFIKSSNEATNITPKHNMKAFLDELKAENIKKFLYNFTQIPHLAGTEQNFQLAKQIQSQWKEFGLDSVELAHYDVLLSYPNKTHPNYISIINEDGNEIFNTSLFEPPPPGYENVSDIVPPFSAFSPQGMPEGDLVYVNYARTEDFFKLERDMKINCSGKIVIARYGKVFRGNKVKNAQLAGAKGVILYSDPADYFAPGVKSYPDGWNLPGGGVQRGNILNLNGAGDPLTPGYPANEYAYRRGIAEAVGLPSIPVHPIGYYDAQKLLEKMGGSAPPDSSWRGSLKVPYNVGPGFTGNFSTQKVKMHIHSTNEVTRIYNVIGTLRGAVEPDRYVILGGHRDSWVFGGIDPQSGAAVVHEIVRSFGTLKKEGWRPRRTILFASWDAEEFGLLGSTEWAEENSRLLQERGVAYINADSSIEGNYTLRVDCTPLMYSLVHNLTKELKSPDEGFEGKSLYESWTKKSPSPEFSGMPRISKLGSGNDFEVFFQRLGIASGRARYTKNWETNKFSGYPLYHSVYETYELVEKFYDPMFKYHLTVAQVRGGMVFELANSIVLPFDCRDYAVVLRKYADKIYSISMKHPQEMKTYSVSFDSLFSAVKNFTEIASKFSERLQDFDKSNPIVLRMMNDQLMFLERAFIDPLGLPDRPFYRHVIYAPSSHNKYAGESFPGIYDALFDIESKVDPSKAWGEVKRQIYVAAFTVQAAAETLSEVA

B1: LH22 diabody-type BsAb (EGFR×CD3 diabody-type BsAb derived from FOM-22H strain) (bispecific antibody)
chain 1: ATLTPDIQMTQSPSSLSASVGDRVTITCSASSSVSYMNWYQQTPGKAPKRWIYDTSKLASGVPSRFSGSGSGTDYTFTISSLQPEDIATYYCQQWSSNPFTFGQGTKLQITAAGGGGSQVQLQESGPGLVKPSQTLSLTCTVSGGSISSGDYYWSWIRQPPGKGLEWIGYIYYSGSTDYNPSLKSRVTMSVDTSKNQFSLKVNSVTAADTAVYYCARVSIFGVGTFDYWGQGTLVTVSSAAAEQKLISEEDLNLGGGMRGSHHHHHH
chain 2: ATLTPDIVMTQSPATLSLSPGERATLSCRASQSVSSYLAWYQQKPGQAPRLLIYDASNRATGIPARFSGSGSGTDFTLTISSLEPEDFAVYYCHQYGSTPLTFGGGTKAEIKAAGGGGSQVQLVQSGGGVVQPGRSLRLSCKASGYTFTRYTMHWVRQAPGKGLEWIGYINPSRGYTNYNQKVKDRFTISRDNSKNTAFLQMDSLRPEDTGVYFCARYYDDHYSLDYWGQGTPVTVSSAAAEQKLISEEDLNLGGGMRGSHHHHHH
- EC50: concentration that reduced the viability of HCT116 cells to 50% (T-LAK:HCT116 5:1, 24 h) [1]: 0.00025 nM

B2: HL-PUM-H diabody-type BsAb (PSMA×CD3 diabody-type BsAb derived from HL-PUM-H strain) (bispecific antibody)
chain 1: ATEVQLVESGGGLVQPGGSLRLSCAASGYSFTGYTMNWVRQAPGKGLEWVALINPYKGVSTYNQKFKDRFTISVDKSKNTAYLQMNSLRAEDTAVYYCARSGYYGDSDWYFDVWGQGTLVTVSSAAGGGGSDIQMTQSPSSLSASVGDRVTITCKASQNVDTNVAWYQQKPGQAPKSLIYSASYRYSDVPSRFSGSASGTDFTLTISSVQSEDFATYYCQQYDSYPYTFGGGTKLEIKAAAEQKLISEEDLNLGGGMRGSHHHHHH
chain 2: ADQVQLVESGGGLVKPGESLRLSCAASGFTFSDYYMYWVRQAPGKGLEWVAIISDGGYYTYYSDIIKGRFTISRDNAKNSLYLQMNSLKAEDTAVYYCARGFPLLRHGAMDYWGQGTLVTVSSAAGGGGSDIQMTQSPSSLSASVGDRVTITCRASQDIRNYLNWYQQKPGKAPKLLIYYTSRLESGVPSRFSGSGSGTDYTLTISSLQPEDFATYYCQQGNTLPWTFGQGTKVEIKAAAEQKLISEEDLNLGGGMRGSHHHHHH
- EC50, cytotoxic activity on 22Rv1 cells with T-LAKs [2]: 0.233 nM

B3: EUM-H diabody-type BsAb (EpCAM×CD3 diabody-type BsAb derived from EUM-H strain) (bispecific antibody)
chain 1: ATDIQMTQSPSSLSASVGDRVTITCRASQDIRNYLNWYQQKPGKAPKLLIYYTSRLESGVPSRFSGSGSGTDYTLTISSLQPEDFATYYCQQGNTLPWTFGQGTKVEIKAAGGGGSEVQLLEQSGAELVRPGTSVKISCKASGYAFTNYWLGWVKQRPGHGLEWIGDIFPGSGNIHYNEKFKGKATLTADKSSSTAYMQLSSLTFEDSAVYFCARLRNWDEPMDYWGQGTTVTVSSAAAEQKLISEEDLNLGGGMRGSHHHHHH
chain 2: ADELVMTQSPSSLTVTAGEKVTMSCKSSQSLLNSGNQKNYLTWYQQKPGQPPKLLIYWASTRESGVPDRFTGSGSGTDFTLTISSVQAEDLAVYYCQNDYSYPLTFGAGTKLEIKAAGGGGSEVQLVESGGGLVQPGGSLRLSCAASGYSFTGYTMNWVRQAPGKGLEWVALINPYKGVSTYNQKFKDRFTISVDKSKNTAYLQMNSLRAEDTAVYYCARSGYYGDSDWYFDVWGQGTLVTVSSAAAEQKLISEEDLNLGGGMRGSHHHHHH
notes: Secreted by Bifidobacterium longum 105-A carrying pEUM-H; purified through the His tag; also called EUM-H polypeptide 1 + EUM-H polypeptide 2
- EC50, cytotoxic activity on HCT116 cells with T-LAKs [3]: 0.0173 nM
- binding result [4]: binds

B4: LH9 diabody-type BsAb (EGFR×CD3 diabody-type BsAb derived from FLM-9H strain) (bispecific antibody)
chain 1: ATLTPDIVLTQSPATLSLSPGERATLSCRASQSVSYMNWYQQKPGKAPKRWIYDTSKVASGVPARFSGSGSGTDYSLTINSLEAEDAATYYCQQWSSNPLTFGGGTKVEIKAAGGGGSQVQLQESGPGLVKPSQTLSLTCTVSGGSISSGDYYWSWIRQPPGKGLEWIGYIYYSGSTDYNPSLKSRVTMSVDTSKNQFSLKVNSVTAADTAVYYCARVSIFGVGTFDYWGQGTLVTVSSAAAAEQKLISEEDLNLGGGMRGSHHHHHH
chain 2: ATLTPDIVMTQSPATLSLSPGERATLSCRASQSVSSYLAWYQQKPGQAPRLLIYDASNRATGIPARFSGSGSGTDFTLTISSLEPEDFAVYYCHQYGSTPLTFGGGTKAEIKAAGGGGSDVQLVQSGAEVKKPGASVKVSCKASGYTFTRYTMHWVRQAPGQGLEWIGYINPSRGYTNYADSVKGRFTITTDKSTSTAYMELSSLRSEDTATYYCARYYDDHYCLDYWGQGTTVTVSSAAAEQKLISEEDLNLGGGMRGSHHHHHH
- EC50: concentration that reduced the viability of HCT116 cells to 50% (T-LAK:HCT116 5:1, 24 h) [1]: 0.0022 nM

B5: LH36 diabody-type BsAb (HER2×CD3 diabody-type BsAb derived from CUM-36-1H strain) (bispecific antibody)
chain 1: ATLTPDIQMTQSPSSLSASVGDRVTITCKASQDVSIGVAWYQQKPGKAPKLLIYSASYRYTGVPSRFSGSGSGTDFTLTISSLQPEDFATYYCQQYYIYPYTFGQGTKVEIKAAGGGGSEVQLVESGGGLVQPGGSLRLSCAASGYSFTGYTMNWVRQAPGKGLEWVALINPYKGVSTYNQKFKDRFTISVDKSKNTAYLQMNSLRAEDTAVYYCARSGYYGDSDWYFDVWGQGTLVTVSSAAAEQKLISEEDLNLGGGMRGSHHHHHH
chain 2: ATDIQMTQSPSSLSASVGDRVTITCRASQDIRNYLNWYQQKPGKAPKLLIYYTSRLESGVPSRFSGSGSGTDYTLTISSLQPEDFATYYCQQGNTLPWTFGQGTKVEIKAAGGGGSEVQLVESGGGLVQPGGSLRLSCAASGFTFTDYTMDWVRQAPGKGLEWVADVNPNSGGSIYNQRFKGRFTLSVDRSKNTLYLQMNSLRAEDTAVYYCARNLGPSFYFDYWGQGTLVTVSSAAAEQKLISEEDLNLGGGMRGSHHHHHH
notes: Secreted by Bifidobacterium longum 105-A carrying pLH36-1; purified through the His tag; also called LH36 polypeptide 1 + LH36 polypeptide 2 (SP50-L2)
- binding result [5]: binds
- binding result [6]: no binding

B6: LH36 diabody-type BsAb (HER2×CD3 diabody-type BsAb derived from CUM-36-2H strain) (bispecific antibody)
chain 1: B5 chain 1
chain 2: B5 chain 2 with T2D
notes: Secreted by Bifidobacterium longum 105-A carrying pLH36-2; purified through the His tag; also called LH36 polypeptide 1 + LH36 polypeptide 2 (SP52-L2)
- binding result [5]: binds

B7: LH31 diabody-type BsAb (EGFR×CD3 diabody-type BsAb derived from DUM-126H strain) (bispecific antibody)
chain 1: ATDIQMTQSPSSLSASVGDRVTITCRASQDIRNYLNWYQQKPGKAPKLLIYYTSRLESGVPSRFSGSGSGTDYTLTISSLQPEDFATYYCQQGNTLPWTFGQGTKVEIKAAGGGGSEVQLVESGGGLVQPGGSLRLSCAASGFTLSGDWIHWVRQAPGKGLEWLGEISAAGGYTDYADSVKGRFTISADTSKNTAYLQMNSLRAEDTAVYYCARESRVSFEAAMDYWGQGTLVTVSSAAAAEQKLISEEDLNLGGGMRGSHHHHHH
chain 2: ATDIQMTQSPSSLSASVGDRVTITCRASQDLATDVAWYQQKPGKAPKLLIYSASFLYSGVPSRFSGSGSGTDFTLTISSLQPEDFATYYCQQSEPEPYTFGQGTKVEIKAAGGGGSEVQLVESGGGLVQPGGSLRLSCAASGYSFTGYTMNWVRQAPGKGLEWVALINPYKGVSTYNQKFKDRFTISVDKSKNTAYLQMNSLRAEDTAVYYCARSGYYGDSDWYFDVWGQGTLVTVSSAAAEQKLISEEDLNLGGGMRGSHHHHHH
notes: Secreted by Bifidobacterium longum 105-A carrying plasmid p126; purified on protein L resin; also called LH31 polypeptide 1 + LH31 polypeptide 2 with SP50-L2
- EC50, viability of HCT116 cells with T-LAKs [1]: 0.0084 nM
- binding result [7]: binds

B8: LH-PUM-H diabody-type BsAb (PSMA×CD3 diabody-type BsAb derived from LH-PUM-H strain) (bispecific antibody)
chain 1: ATDIQMTQSPSSLSASVGDRVTITCRASQDIRNYLNWYQQKPGKAPKLLIYYTSRLESGVPSRFSGSGSGTDYTLTISSLQPEDFATYYCQQGNTLPWTFGQGTKVEIKAAGGGGSQVQLVESGGGLVKPGESLRLSCAASGFTFSDYYMYWVRQAPGKGLEWVAIISDGGYYTYYSDIIKGRFTISRDNAKNSLYLQMNSLKAEDTAVYYCARGFPLLRHGAMDYWGQGTLVTVSSAAAEQKLISEEDLNLGGGMRGSHHHHHH
chain 2: ADDIQMTQSPSSLSASVGDRVTITCKASQNVDTNVAWYQQKPGQAPKSLIYSASYRYSDVPSRFSGSASGTDFTLTISSVQSEDFATYYCQQYDSYPYTFGGGTKLEIKAAGGGGSEVQLVESGGGLVQPGGSLRLSCAASGYSFTGYTMNWVRQAPGKGLEWVALINPYKGVSTYNQKFKDRFTISVDKSKNTAYLQMNSLRAEDTAVYYCARSGYYGDSDWYFDVWGQGTLVTVSSAAAEQKLISEEDLNLGGGMRGSHHHHHH
- EC50, cytotoxic activity on 22Rv1 cells with T-LAKs [2]: 0.155 nM
